Patent publication US20200390859A1

Target: mouse FGFR4/β-klotho complex co-expressed in rat L6 myoblast cells (mouse) (UniProt Q03142)
Assay: cell-based or functional assay

Sequence of mouse FGFR4/β-klotho complex co-expressed in rat L6 myoblast cells (mouse) (Q03142 17-799, chain 1 of 2): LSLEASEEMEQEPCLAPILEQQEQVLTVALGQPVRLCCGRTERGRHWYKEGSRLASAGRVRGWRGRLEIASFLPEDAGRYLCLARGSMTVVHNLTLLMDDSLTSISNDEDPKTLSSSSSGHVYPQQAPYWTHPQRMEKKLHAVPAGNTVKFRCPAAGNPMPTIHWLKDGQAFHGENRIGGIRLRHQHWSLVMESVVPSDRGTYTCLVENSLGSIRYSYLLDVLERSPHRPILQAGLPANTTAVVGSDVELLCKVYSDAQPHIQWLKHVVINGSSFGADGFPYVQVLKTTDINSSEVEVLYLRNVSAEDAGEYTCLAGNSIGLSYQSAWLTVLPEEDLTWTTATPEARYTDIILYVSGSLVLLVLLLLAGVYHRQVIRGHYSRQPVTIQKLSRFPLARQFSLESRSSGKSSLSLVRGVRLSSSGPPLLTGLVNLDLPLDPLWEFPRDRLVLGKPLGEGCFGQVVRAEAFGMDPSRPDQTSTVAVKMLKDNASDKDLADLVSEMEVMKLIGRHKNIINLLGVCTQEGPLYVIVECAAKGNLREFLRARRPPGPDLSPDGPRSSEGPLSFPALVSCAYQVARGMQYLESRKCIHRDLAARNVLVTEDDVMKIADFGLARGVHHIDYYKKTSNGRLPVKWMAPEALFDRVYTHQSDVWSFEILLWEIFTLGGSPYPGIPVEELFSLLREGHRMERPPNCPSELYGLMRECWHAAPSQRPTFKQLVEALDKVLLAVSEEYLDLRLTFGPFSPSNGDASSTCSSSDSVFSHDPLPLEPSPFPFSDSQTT
Sequence of mouse FGFR4/β-klotho complex co-expressed in rat L6 myoblast cells (mouse) (Q99N32 whole entry, chain 2 of 2, further chain): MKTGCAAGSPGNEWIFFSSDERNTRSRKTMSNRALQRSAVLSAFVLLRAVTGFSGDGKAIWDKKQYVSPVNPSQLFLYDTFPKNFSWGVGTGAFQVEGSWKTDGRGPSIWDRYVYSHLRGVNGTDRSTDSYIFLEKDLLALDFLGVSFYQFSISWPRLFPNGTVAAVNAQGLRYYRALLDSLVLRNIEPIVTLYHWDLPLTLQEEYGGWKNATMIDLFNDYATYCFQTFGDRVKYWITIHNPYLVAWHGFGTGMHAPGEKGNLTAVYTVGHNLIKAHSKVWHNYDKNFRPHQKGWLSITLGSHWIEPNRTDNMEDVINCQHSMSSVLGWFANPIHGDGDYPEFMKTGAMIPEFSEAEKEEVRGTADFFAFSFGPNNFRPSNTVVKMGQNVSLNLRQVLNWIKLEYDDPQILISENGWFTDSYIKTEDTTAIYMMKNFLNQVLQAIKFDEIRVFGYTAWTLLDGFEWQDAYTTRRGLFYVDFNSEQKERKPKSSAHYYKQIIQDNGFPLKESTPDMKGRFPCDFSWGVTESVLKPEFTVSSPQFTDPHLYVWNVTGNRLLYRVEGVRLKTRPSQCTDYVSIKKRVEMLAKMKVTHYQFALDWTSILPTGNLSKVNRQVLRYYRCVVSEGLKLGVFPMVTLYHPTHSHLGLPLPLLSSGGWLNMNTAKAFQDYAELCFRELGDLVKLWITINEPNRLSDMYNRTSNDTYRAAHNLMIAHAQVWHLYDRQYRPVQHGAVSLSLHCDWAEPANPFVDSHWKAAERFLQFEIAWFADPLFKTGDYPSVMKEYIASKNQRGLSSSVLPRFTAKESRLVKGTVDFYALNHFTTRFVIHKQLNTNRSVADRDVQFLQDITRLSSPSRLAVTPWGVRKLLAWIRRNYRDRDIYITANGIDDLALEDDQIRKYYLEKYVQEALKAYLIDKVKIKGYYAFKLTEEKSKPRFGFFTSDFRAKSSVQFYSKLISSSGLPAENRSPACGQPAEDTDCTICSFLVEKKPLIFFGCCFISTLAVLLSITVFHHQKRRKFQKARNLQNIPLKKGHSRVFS

Q: How did the EC50 (pM), ELK1 luciferase reporter in L6 cells transfected with mouse FGFR4 and β-klotho turn out when “FGF19 (human fibroblast growth factor 19, wild type) (from UniProt O95750 25-216) (ligand)” was run?
A: 52.5 pM

Q: And the Emax (fold potentiation), ELK1 luciferase reporter in L6 cells transfected with mouse FGFR4 and β-klotho (fold potentiation)?
A: 1.82
